From PMC4615246 (Nucleus, 2015)
Values belong to the binder of their own block, whether it stands above or below them.

Assays:
LacI-CFP-Nup153 = biological target: T1, LacI-CFP-Nup153 (human, UniProt P49790 1-1475); assay: LacI/LacO array recruitment in cells
T1 sequence: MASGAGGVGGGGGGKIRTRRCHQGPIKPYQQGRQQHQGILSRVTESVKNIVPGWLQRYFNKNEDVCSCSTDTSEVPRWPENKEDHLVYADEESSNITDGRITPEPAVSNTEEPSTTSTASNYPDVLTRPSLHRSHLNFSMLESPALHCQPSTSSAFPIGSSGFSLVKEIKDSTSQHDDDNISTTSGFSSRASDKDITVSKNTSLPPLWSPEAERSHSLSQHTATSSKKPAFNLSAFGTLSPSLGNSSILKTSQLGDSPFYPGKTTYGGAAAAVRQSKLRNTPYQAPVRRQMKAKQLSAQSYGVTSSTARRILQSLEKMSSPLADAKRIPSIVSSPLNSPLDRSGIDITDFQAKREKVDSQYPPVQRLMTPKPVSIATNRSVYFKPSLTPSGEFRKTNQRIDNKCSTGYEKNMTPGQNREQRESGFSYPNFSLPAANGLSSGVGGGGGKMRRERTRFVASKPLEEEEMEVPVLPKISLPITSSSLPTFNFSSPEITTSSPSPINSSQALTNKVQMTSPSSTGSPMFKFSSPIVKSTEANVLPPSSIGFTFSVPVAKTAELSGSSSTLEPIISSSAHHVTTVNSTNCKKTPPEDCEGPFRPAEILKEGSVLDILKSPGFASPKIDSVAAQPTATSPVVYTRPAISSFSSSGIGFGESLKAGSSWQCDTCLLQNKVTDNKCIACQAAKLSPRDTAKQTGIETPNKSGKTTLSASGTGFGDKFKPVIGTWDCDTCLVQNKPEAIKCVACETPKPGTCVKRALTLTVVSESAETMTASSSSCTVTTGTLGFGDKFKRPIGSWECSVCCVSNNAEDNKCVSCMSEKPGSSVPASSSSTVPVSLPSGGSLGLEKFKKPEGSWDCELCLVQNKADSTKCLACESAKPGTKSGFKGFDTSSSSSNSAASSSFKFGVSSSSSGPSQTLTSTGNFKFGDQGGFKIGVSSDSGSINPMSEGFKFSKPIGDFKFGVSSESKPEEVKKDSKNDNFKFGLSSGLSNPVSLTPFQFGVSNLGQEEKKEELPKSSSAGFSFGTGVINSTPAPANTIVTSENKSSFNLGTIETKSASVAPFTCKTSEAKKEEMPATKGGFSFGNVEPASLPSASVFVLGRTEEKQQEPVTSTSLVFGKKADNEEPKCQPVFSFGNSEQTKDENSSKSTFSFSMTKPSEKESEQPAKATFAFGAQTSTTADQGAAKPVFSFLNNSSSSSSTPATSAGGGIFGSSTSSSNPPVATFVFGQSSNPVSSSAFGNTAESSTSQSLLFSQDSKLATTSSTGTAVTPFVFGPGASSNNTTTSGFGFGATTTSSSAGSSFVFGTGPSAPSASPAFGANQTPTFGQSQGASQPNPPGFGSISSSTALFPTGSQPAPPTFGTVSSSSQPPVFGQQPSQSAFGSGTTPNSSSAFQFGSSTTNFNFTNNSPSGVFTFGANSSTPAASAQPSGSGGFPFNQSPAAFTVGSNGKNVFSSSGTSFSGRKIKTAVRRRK

LacI-CFP-Nup155 = biological target: T2, LacI-CFP-Nup155 (human, UniProt O75694 1-1391); assay: LacI/LacO array recruitment in cells
T2 sequence: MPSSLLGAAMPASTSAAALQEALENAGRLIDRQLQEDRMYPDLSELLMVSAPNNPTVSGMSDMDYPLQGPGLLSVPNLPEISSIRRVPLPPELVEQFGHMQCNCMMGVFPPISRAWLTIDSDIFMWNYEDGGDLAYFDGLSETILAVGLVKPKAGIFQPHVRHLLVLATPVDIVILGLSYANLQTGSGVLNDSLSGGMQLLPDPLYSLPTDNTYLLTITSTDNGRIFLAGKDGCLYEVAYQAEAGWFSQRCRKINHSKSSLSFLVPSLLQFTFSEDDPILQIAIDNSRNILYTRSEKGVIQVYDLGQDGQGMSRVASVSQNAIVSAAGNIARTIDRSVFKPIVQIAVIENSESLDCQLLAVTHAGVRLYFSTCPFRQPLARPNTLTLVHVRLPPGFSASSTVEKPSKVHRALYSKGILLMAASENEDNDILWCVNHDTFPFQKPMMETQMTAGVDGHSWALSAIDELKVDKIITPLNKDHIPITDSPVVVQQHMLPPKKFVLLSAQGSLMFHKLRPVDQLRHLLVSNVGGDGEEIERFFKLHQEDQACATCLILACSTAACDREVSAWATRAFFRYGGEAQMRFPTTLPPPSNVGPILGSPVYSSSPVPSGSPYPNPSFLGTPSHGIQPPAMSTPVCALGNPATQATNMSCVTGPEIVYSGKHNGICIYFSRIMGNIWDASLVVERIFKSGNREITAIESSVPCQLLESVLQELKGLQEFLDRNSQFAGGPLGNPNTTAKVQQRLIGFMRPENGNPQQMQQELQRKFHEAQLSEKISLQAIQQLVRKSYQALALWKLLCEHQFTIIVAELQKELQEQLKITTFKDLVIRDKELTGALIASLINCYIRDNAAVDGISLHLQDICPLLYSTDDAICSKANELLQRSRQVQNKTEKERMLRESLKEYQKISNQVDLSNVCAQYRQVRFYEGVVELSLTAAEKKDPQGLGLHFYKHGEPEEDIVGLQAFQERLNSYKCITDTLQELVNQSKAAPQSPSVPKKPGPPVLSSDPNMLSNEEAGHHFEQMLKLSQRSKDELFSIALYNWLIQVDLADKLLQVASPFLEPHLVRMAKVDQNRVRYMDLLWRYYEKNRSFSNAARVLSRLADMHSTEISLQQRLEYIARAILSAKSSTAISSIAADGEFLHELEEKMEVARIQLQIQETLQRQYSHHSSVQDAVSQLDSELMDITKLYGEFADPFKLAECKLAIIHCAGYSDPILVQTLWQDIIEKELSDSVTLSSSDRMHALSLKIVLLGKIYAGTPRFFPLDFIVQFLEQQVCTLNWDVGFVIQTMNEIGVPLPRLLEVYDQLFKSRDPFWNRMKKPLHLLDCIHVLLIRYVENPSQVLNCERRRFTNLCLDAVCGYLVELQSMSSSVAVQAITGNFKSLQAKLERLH

- percent of transfected cells showing colocalization (LacI-CFP-Nup153): 33%
B1: Nup160 (endogenous) (natural protein)
chain: MLHLSAAPPAPPPEVTATARPCLCSVGRRGDGGKMAAAGALERSFVELSGAERERPRHFREFTVCSIGTANAVAGAVKYSESAGGFYYVESGKLFSVTRNRFIHWKTSGDTLELMEESLDINLLNNAIRLKFQNCSVLPGGVYVSETQNRVIILMLTNQTVHRLLLPHPSRMYRSELVVDSQMQSIFTDIGKVDFTDPCNYQLIPAVPGISPNSTASTAWLSSDGEALFALPCASGGIFVLKLPPYDIPGMVSVVELKQSSVMQRLLTGWMPTAIRGDQSPSDRPLSLAVHCVEHDAFIFALCQDHKLRMWSYKEQMCLMVADMLEYVPVKKDLRLTAGTGHKLRLAYSPTMGLYLGIYMHAPKRGQFCIFQLVSTESNRYSLDHISSLFTSQETLIDFALTSTDIWALWHDAENQTVVKYINFEHNVAGQWNPVFMQPLPEEEIVIRDDQDPREMYLQSLFTPGQFTNEALCKALQIFCRGTERNLDLSWSELKKEVTLAVENELQGSVTEYEFSQEEFRNLQQEFWCKFYACCLQYQEALSHPLALHLNPHTNMVCLLKKGYLSFLIPSSLVDHLYLLPYENLLTEDETTISDDVDIARDVICLIKCLRLIEESVTVDMSVIMEMSCYNLQSPEKAAEQILEDMITIDVENVMEDICSKLQEIRNPIHAIGLLIREMDYETEVEMEKGFNPAQPLNIRMNLTQLYGSNTAGYIVCRGVHKIASTRFLICRDLLILQQLLMRLGDAVIWGTGQLFQAQQDLLHRTAPLLLSYYLIKWGSECLATDVPLDTLESNLQHLSVLELTDSGALMANRFVSSPQTIVELFFQEVARKHIISHLFSQPKAPLSQTGLNWPEMITAITSYLLQLLWPSNPGCLFLECLMGNCQYVQLQDYIQLLHPWCQVNVGSCRFMLGRCYLVTGEGQKALECFCQAASEVGKEEFLDRLIRSEDGEIVSTPRLQYYDKVLRLLDVIGLPELVIQLATSAITEAGDDWKSQATLRTCIFKHHLDLGHNSQAYEALTQIPDSSRQLDCLRQLVVVLCERSQLQDLVEFPYVNLHNEVVGIIESRARAVDLMTHNYYELLYAFHIYRHNYRKAGTVMFEYGMRLGREVRTLRGLEKQGNCYLAALNCLRLIRPEYAWIVQPVSGAVYDRPGASPKRNHDGECTAAPTNRQIEILELEDLEKECSLARIRLTLAQHDPSAVAVAGSSSAEEMVTLLVQAGLFDTAISLCQTFKLPLTPVFEGLAFKCIKLQFGGEAAQAEAWAWLAANQLSSVITTKESSATDEAWRLLSTYLERYKVQNNLYHHCVINKLLSHGVPLPNWLINSYKKVDAAELLRLYLNYDLLEEAVDLVSEYVDAVLGKGHQYFGIEFPLSATAPMVWLPYSSIDQLLQALGENSANSHNIALSQKILDKLEDYQQKVDKATRDLLYRRTL

- percent of transfected cells showing colocalization (LacI-CFP-Nup155): 2%
- percent of transfected cells showing colocalization (LacI-CFP-Nup153): 23%
B2: Nup93 (endogenous) (natural protein)
chain: MDTEGFGELLQQAEQLAAETEGISELPHVERNLQEIQQAGERLRSRTLTRTSQETADVKASVLLGSRGLDISHISQRLESLSAATTFEPLEPVKDTDIQGFLKNEKDNALLSAIEESRKRTFGMAEEYHRESMLVEWEQVKQRILHTLLASGEDALDFTQESEPSYISDVGPPGRSSLDNIEMAYARQIYIYNEKIVNGHLQPNLVDLCASVAELDDKSISDMWTMVKQMTDVLLTPATDALKNRSSVEVRMEFVRQALAYLEQSYKNYTLVTVFGNLHQAQLGGVPGTYQLVRSFLNIKLPAPLPGLQDGEVEGHPVWALIYYCMRCGDLLAASQVVNRAQHQLGEFKTWFQEYMNSKDRRLSPATENKLRLHYRRALRNNTDPYKRAVYCIIGRCDVTDNQSEVADKTEDYLWLKLNQVCFDDDGTSSPQDRLTLSQFQKQLLEDYGESHFTVNQQPFLYFQVLFLTAQFEAAVAFLFRMERLRCHAVHVALVLFELKLLLKSSGQSAQLLSHEPGDPPCLRRLNFVRLLMLYTRKFESTDPREALQYFYFLRDEKDSQGENMFLRCVSELVIESREFDMILGKLENDGSRKPGVIDKFTSDTKPIINKVASVAENKGLFEEAAKLYDLAKNADKVLELMNKLLSPVVPQISAPQSNKERLKNMALSIAERYRAQGISANKFVDSTFYLLLDLITFFDEYHSGHIDRAFDIIERLKLVPLNQESVEERVAAFRNFSDEIRHNLSEVLLATMNILFTQFKRLKGTSPSSSSRPQRVIEDRDSQLRSQARTLITFAGMIPYRTSGDTNARLVQMEVLMN

- percent of transfected cells showing colocalization (LacI-CFP-Nup153): 56%
B3: Nup62 (endogenous) (natural protein)
chain: MSGFNFGGTGAPTGGFTFGTAKTATTTPATGFSFSTSGTGGFNFGAPFQPATSTPSTGLFSLATQTPATQTTGFTFGTATLASGGTGFSLGIGASKLNLSNTAATPAMANPSGFGLGSSNLTNAISSTVTSSQGTAPTGFVFGPSTTSVAPATTSGGFSFTGGSTAQPSGFNIGSAGNSAQPTAPATLPFTPATPAATTAGATQPAAPTPTATITSTGPSLFASIATAPTSSATTGLSLCTPVTTAGAPTAGTQGFSLKAPGAASGTSTTTSTAATATATTTSSSSTTGFALNLKPLAPAGIPSNTAAAVTAPPGPGAAAGAAASSAMTYAQLESLINKWSLELEDQERHFLQQATQVNAWDRTLIENGEKITSLHREVEKVKLDQKRLDQELDFILSQQKELEDLLSPLEELVKEQSGTIYLQHADEEREKTYKLAENIDAQLKRMAQDLKDIIEHLNTSGAPADTSDPLQQICKILNAHMDSLQWIDQNSALLQRKVEEVTKVCEGRRKEQERSFRITFD

- percent of transfected cells showing colocalization (LacI-CFP-Nup153): 58%
B4: Nup85 (endogenous) (natural protein)
chain: MEELDGEPTVTLIPGVNSKKNQMYFDWGPGEMLVCETSFNKKEKSEMVPSCPFIYIIRKDVDVYSQILRKLFNESHGIFLGLQRIDEELTGKSRKSQLVRVSKNYRSVIRACMEEMHQVAIAAKDPANGRQFSSQVSILSAMELIWNLCEILFIEVAPAGPLLLHLLDWVRLHVCEVDSLSADVLGSENPSKHDSFWNLVTILVLQGRLDEARQMLSKEADASPASAGICRIMGDLMRTMPILSPGNTQTLTELELKWQHWHEECERYLQDSTFATSPHLESLLKIMLGDEAALLEQKELLSNWYHFLVTRLLYSNPTVKPIDLHYYAQSSLDLFLGGESSPEPLDNILLAAFEFDIHQVIKECSIALSNWWFVAHLTDLLDHCKLLQSHNLYFGSNMREFLLLEYASGLFAHPSLWQLGVDYFDYCPELGRVSLELHIERIPLNTEQKALKVLRICEQRQMTEQVRSICKILAMKAVRNNRLGSALSWSIRAKDAAFATLVSDRFLRDYCERGCFSDLDLIDNLGPAMMLSDRLTFLGKYREFHRMYGEKRFADAASLLLSLMTSRIAPRSFWMTLLTDALPLLEQKQVIFSAEQTYELMRCLEDLTSRRPVHGESDTEQLQDDDIETTKVEMLRLSLARNLARAIIREGSLEGS
